Publication PMC4047914 (Cell Death & Disease, 2014)
Where “and” joins values, the source holds several entries; their conditions need not be identical. Identical values can stand only once.

Key:
[1] = target: ErbB2/delD4 (human ErbB2 lacking ECD subdomain D4) (human) (UniProt P04626); assay: ELISA
[2] = target: ErbB2/delD2 (human ErbB2 lacking ECD subdomain D2) (human) (UniProt P04626); assay: ELISA
[3] = target: human ErbB2 stably overexpressed in CHO-K1 cells (CHO-K1/ErbB2 cells, pcDNA3-ERBB2) (human, UniProt P04626 23-1255); assay: cross-linking
[4] = target: the molecule itself
[5] = target: human ErbB2, wild type, transiently overexpressed in CHO-K1 cells from pCMV6-XL5-ERBB2 (human, UniProt P04626 23-1255); assay: ELISA

Binder | fold reduction of binding affinity against wild-type ErbB2 [1] [fold] | fold reduction of binding affinity against wild-type ErbB2 [2] [fold] | stoichiometry N [3] | stoichiometry N [4] | Kd [5] [nM]
Recombinant human prolidase (PEPD), wild type (enzyme) MAAATGPSFWLGNETLKVPLALFALNRQRLCERLRKNPAVQAGSIVVLQGGEETQRYCTDTGVLFRQESFFHWAFGVTEPGCYGVIDVDTGKSTLFVPRLPASHATWMGKIHSKEHFKEKYAVDDVQYVDEIASVLTSQKPSVLLTLRGVNTDSGSVCREASFDGISKFEVNNTILHPEIVECRVFKTDMELEVLRYTNKISSEAHREVMKAVKVGMKEYELESLFEHYCYSRGGMRHSSYTCICGSGENSAVLHYGHAGAPNDRTIQNGDMCLFDMGGEYYCFASDITCSFPANGKFTADQKAVYEAVLRSSRAVMGAMKPGVWWPDMHRLADRIHLEELAHMGILSGSVDAMVQAHLGAVFMPHGLGHFLGIDVHDVGGYPEGVERIDEPGLRSLRTARHLQPGMVLTVEPGIYFIDHLLDEALADPARASFLNREVLQRFRGFGGVRIEEDVVVTDSGIELLTCVPRTVEEIEACMAGCDKAFTPFSGPK | 51 | 3.5 | 2 PEPD per 2 ErbB2 (heterotetramer) and 2 PEPD per 1 ErbB2 (heterotrimer) | 2 | 7.3
G278D-PEPD (human PEPD, G→D at amino acid no. 278) (enzyme) MAAATGPSFWLGNETLKVPLALFALNRQRLCERLRKNPAVQAGSIVVLQGGEETQRYCTDTGVLFRQESFFHWAFGVTEPGCYGVIDVDTGKSTLFVPRLPASHATWMGKIHSKEHFKEKYAVDDVQYVDEIASVLTSQKPSVLLTLRGVNTDSGSVCREASFDGISKFEVNNTILHPEIVECRVFKTDMELEVLRYTNKISSEAHREVMKAVKVGMKEYELESLFEHYCYSRGGMRHSSYTCICGSGENSAVLHYGHAGAPNDRTIQNGDMCLFDMDGEYYCFASDITCSFPANGKFTADQKAVYEAVLRSSRAVMGAMKPGVWWPDMHRLADRIHLEELAHMGILSGSVDAMVQAHLGAVFMPHGLGHFLGIDVHDVGGYPEGVERIDEPGLRSLRTARHLQPGMVLTVEPGIYFIDHLLDEALADPARASFLNREVLQRFRGFGGVRIEEDVVVTDSGIELLTCVPRTVEEIEACMAGCDKAFTPFSGPK |  |  |  | 2 | 
